Patent publication US8637452B2, “Water soluble membrane proteins and methods for the preparation and use thereof” (Massachusetts Institute of Technology, priority 2011, dated 2014)

Target: T1, SDF1α (Homo sapiens, UniProt P61073, F172Y/F264Y/F293Y/F304Y/F36Y/F49Y/F93Y/I162T/I169T/I173T/I243T/I257T/I286T/I300T/I39T/I53T/I89T/L165Q/L246Q/L253Q/L290Q/L297T/L301Q/L50Q/L86Q/V242T/V82T/V96T/V99T)
T1 construct: HUMAN CXCR4 QTY; made in house; host or cells: cell-free production
Test: Surface Plasmon Resonance analysis of CXCR4 QTY (Biacore, receptor captured on 1D4 Ab, SDF1α injected)
Type: binding
Conditions: SPR, Biacore 2000, CM5 chip; SDF1α 0-1 μM; HBST with 0.2% BSA and 0.2% Fos-Choline-14
Experimental: Human CXCR4 and our CXCR4 QTY proteins obtained from cell-free production and purified with affinity beads were captured in different flow cells on a Biacore CM5 chip with immobilized 1D4 Antibody (Ab) in a Biacore 2000 instrument. Different concentrations of SDF1α, the native ligand for hCXCR4 receptor, were injected over the surface to allow interaction with the receptors.
Biacore CM5 chips were activated with 1-Ethyl-3-[3-dimethylaminopropyl]carbodiimide hydrochloride and N-hydroxysuccinimide according to the manufacturer's protocol prior to a 7 minute injection at 5 μl/min of 1D4 Ab to flow cells 2-4 at 70 μg/ml followed by deactivating of the surfaces in all the 4 flow cells with a short Ethanolamine pulse. The immobilization level of 1D4 Ab range from 8000-25000 Response units (RU).
CXCR4 and CXCR4 QTY mutant are captured by the 1D4 Ab on the CM5 chip by injecting a 0.1 mg/m1 sample of the protein to a single flow cell at 5 μl/min during 15 min with both sample and running buffer containing 0.2% Fos-Choline-14 detergent. The receptors were captured to a level of 800-3000 RU.
SDF1α were injected over all flow cells to allow interaction with both the receptors and flow cell one is used as a reference cell without any immobilized protein. […]

B1: CXCR4 QTY: Water-soluble human CXCR4 variant with 29 QTY mutations in the seven transmembrane helices (SEQ ID NO: 10) (protein)
chain: MEGISIYTSDNYTEEMGSGDYDSMKEPCFREENANYNKTFLPTIYSIIYQTGTVGNGLVILVMGYQKKLRSMTDKYRLHLSTADLQFVTTLPYWATDATANWYFGNFLCKAVHVIYTVNLYSSVLILAFISLDRYLAIVHATNSQRPRKLLAEKVVYVGVWTPAQLLTTPDYTFANVSEADDRYICDRFYPNDLWVVVFQFQHIMVGLILPGIVILSCYCIIISKLSHSKGHQKRKALKTTTTLIQAFFACWQPYYTGISIDSYILLEIIKQGCEFENTVHKWISTTEAQAFYHCCTNPTQYAYLGAKFKTSAQHALTSVSRGSSLKILSKGKRGGHSSVSTESESSSSFHS
- ligand binding (SDF1α): shows ligand binding
